From patent publication US20240368668A1, “SUBSTRATES AND BIOMARKERS OF ADAMTS7” (The Broad Institute, Inc., priority 2021, published 2024)

target: T1, mouse ADAMTS7 (Mus musculus, UniProt Q68SA9); experiment: TMT10 TAILS N-terminomics, HUVEC experiment (process replicates, trypsin/AspN digest); format: cell-based, human; conditions: HUVEC TAILS HC; log fold change of N-terminal peptide, Ad-mADAMTS7 WT over Luc
T1 construct: Full-length mouse Adamts7 1-1857 (Uniprot Q68SA9, WT or E373Q catalytic mutant); expressed in transfected cells; host or cells: Human Coronary Artery Smooth Muscle Cells (HCA-SMC, Lonza), adenovirus 50 MOI
T1 sequence (Q68SA9 221-1657): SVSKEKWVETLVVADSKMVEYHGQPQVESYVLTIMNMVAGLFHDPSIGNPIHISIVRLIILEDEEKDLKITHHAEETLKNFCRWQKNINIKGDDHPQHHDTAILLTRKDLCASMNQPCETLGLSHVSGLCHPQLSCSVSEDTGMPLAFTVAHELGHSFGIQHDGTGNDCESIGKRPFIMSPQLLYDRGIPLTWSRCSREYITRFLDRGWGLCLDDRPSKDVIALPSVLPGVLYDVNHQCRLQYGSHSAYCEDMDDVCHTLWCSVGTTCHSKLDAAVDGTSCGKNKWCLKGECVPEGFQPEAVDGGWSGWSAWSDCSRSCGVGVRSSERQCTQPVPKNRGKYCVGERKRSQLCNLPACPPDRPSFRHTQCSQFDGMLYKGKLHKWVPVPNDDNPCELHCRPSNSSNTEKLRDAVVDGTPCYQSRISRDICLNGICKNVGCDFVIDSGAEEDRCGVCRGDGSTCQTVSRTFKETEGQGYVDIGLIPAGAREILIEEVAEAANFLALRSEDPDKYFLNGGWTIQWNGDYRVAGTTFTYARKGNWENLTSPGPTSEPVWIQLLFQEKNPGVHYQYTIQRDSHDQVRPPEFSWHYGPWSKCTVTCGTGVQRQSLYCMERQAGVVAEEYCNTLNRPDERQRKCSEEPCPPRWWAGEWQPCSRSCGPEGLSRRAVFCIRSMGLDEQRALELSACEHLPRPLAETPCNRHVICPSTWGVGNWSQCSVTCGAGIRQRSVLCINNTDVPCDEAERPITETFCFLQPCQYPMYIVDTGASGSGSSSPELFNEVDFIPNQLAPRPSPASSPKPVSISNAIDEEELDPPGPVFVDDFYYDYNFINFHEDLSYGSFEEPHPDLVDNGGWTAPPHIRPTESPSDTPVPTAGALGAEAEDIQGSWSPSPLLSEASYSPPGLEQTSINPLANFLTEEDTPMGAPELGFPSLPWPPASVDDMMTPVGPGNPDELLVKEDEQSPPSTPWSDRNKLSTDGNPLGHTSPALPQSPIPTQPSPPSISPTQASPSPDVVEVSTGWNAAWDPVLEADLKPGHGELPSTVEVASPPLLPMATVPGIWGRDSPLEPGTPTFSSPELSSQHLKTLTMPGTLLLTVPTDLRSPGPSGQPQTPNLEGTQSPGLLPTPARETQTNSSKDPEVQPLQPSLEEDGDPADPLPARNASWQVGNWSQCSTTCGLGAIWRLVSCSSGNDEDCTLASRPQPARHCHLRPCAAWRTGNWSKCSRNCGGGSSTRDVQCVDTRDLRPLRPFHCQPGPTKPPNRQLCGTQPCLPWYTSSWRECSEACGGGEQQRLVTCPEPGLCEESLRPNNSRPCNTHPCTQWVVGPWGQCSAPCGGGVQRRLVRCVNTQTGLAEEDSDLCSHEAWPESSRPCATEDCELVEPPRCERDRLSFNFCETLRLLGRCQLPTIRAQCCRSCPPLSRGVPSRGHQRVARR
In short: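 Full-length mouse ADAMTS7 (WT or E373Q mutant, C-terminal 3xFLAG) or luciferase was transduced via adenovirus, 50 MOI, into HCA-SMC (SMC1, SMC2) or HUVEC. SMC1: pooled media, technical triplicates 400 ug; SMC2: process triplicates 300 ug; HUVEC: process triplicates 200 ug, bFGF2 10 ng/ml.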

Substance | logFC.mWT.over.Luc
SPOCK1_27 (LAGGAGPNHGNFL; listed as Homo sapiens) | 0.90
NID2_291 (HSSVPLGR; listed as Homo sapiens) | 2.80
NUCB1_317 (FLASTQR; listed as Homo sapiens) | 2.71
MAP4_816 (VASTGPSSR; listed as Homo sapiens) | 2.13
THBS2_290 (LSENLKR; listed as Homo sapiens) | 5.05
SERBP1_56 (QAAAQTNSNAAGKQLR; listed as Homo sapiens) | 1.23
LTBP2_502 (LVENSVETRPPPWLPASPGHSLW; listed as Homo sapiens) | 2.47
LTBP2_250 (SAAGEGTLAR; listed as Homo sapiens) | 1.84
NID1_360 (FHQQHPQVI; listed as Homo sapiens) | 1.48
NUCB1_389 (LQQAVLHMEQR; listed as Homo sapiens) | 1.32
MAP4_815 (AVASTGPSSR; listed as Homo sapiens) | 2.87
LTBP2_79 (VAGLQPVER; listed as Homo sapiens) | 1.13
COL18A1_1505 (LQPPVVQLHDSNPYPR; listed as Homo sapiens) | 3.05
SRGN_59 (LLPGESNKIPR; listed as Homo sapiens) | 1.04
LTBP3_208 (FLVPLGPGQISA; listed as Homo sapiens) | 1.54
